What all share (type): cell-based
Experiment [1] in a line: Emission intensity of luciferase-expressing HeLa S3 cells with AkaLumine. Conditions: for relative emission intensity, AKA: emission intensity of D-luciferin defined as 1; for relative emission intensity, AKA / AkaLumine emission intensity, relative value: HeLa S3 cells; for AkaLumine emission intensity, relative value: relative to 1.0 = emission intensity of luc2 with AkaLumine, 80 μM substrate, integrated over one minute; for AkaLumine/D-luciferin: ratio of relative emission intensities, Table 2. The procedure:
(§1) A plasmid pcDNA3 was treated with use of BamHI and EcoRI, and genes encoding the respective luciferases above were each inserted into the plasmid pcDNA3 to produce plasmids for transfection.
(§2) HeLa S3 cells were used as mammalian cells to be transfected. For each of the luciferases above, HeLa S3 cells which had been cultured in D-MEM (low glucose, containing 10% FBS and 1% penicillin streptomycin, Wako Pure Chemical Industries, Ltd.) and were in an 80% confluent state were mixed with a transfection reagent (Polyethylenimine, Linear (MW 25,000, Polysciences, Inc)) and the plasmid for transfection (0.3 μg) to conduct transfection.
(§3) 24 hours after the transfection, the cells were dissociated through trypsinization, and were suspended in DMEM/F12 (10% FBS, gibco). Subsequently, centrifugation was conducted to remove the supernatant, and then the cells were resuspended in 1 mL DMEM/F12 so as to be used as luciferase-expressing cells.
(§4) In 1.5 mL Eppendorf tube, 20 μL of the produced luciferase-expressing cells and 80 μL of a substrate solution (prepared with pH 7.4 PBS) were mixed, and light emission from the obtained mixture was measured for one minute (with use of a luminometer AB-2280 manufactured by ATTO Corporation). An integrated value of the values thus measured within one minute was defined as the emission intensity.
(§5) As the substrate solution, AkaLumine or D-luciferin (80 μM each) was added. Results of the measurement of emission intensity are shown below in Table 2 as relative values with respect to 1.0 which is an emission intensity obtained in a case where AkaLumine was added to a sample of luc2.
(§6) Subsequently, with use of D-luciferin, AkaLumine, AkaLumine-OH, 6-AkaLumine, 0-AkaLumine, monoene NMe2, monoene NH2, monoene OH, and biphenyl as substrates, specificity to each of these substrates was evaluated. The substrates are respectively represented by the following chemical formulae. Each substrate solution contains a single kind of substrate.
(§7) Tables 3 through 8 show results of relative emission intensities in a case where the emission intensity of D-luciferin is defined as 1.

Experiment [2] is described as follows: Emission intensity of luciferase-expressing HeLa S3 cells with AkaLumine-OH. The settings on record: emission intensity of D-luciferin defined as 1. The procedure:
as §1, §2, §3, §4, §6, §7

Experiment [3] in a line: Emission intensity of luciferase-expressing HeLa S3 cells with D-luciferin. The settings on record: for relative emission intensity, Dluc: emission intensity of D-luciferin defined as 1; for D-luciferin emission intensity, relative value: relative to 1.0 = emission intensity of luc2 with AkaLumine, 80 μM substrate, integrated over one minute. The method, then:
as §1, §2, §3, §4, §5, §6, §7

Experiment [4] in a line: Emission intensity of luciferase-expressing HeLa S3 cells with 6-AkaLumine. The settings on record: emission intensity of D-luciferin defined as 1. The method, then: as §1, §2, §3, §4, §6, §7
The nature of experiment [5]: Emission intensity of luciferase-expressing HeLa S3 cells with monoene NH2. Conditions: emission intensity of D-luciferin defined as 1. The procedure:
as §1, §2, §3, §4, §6, §7

A short description of experiment [6]: Emission intensity of luciferase-expressing HeLa S3 cells with biphenyl. The settings on record: emission intensity of D-luciferin defined as 1. The method, then: as §1, §2, §3, §4, §6, §7
Experiment [7] in a line: Emission intensity of luciferase-expressing HeLa S3 cells with monoene OH. The settings on record: emission intensity of D-luciferin defined as 1. The procedure:
as §1, §2, §3, §4, §6, §7

Experiment [8] can be described thus: Emission intensity of luciferase-expressing HeLa S3 cells with monoene NMe2. Conditions: emission intensity of D-luciferin defined as 1. The procedure:
as §1, §2, §3, §4, §6, §7

A short description of experiment [9]: Emission intensity of luciferase-expressing HeLa S3 cells with 0-AkaLumine. The settings on record: emission intensity of D-luciferin defined as 1. The procedure:
as §1, §2, §3, §4, §6, §7

Positions count from the first letter of the chain named. Names and notes keep the numbering of the source.

B1: Variant b: luc2 variant with the mutations of column b in Table 1 (SEQ ID NO: 5) (protein)
chain: MEDAKNIKKGPAPFYPLEDGTAGEQLHKAMKRYALVPGAIAFTDAHIQVDVTYAEYFEMSVRLAEAMRRYGLNTNHRIVVCSENSLQFFMPVLGALFIGVAVAPANDIYNERELLNSMGISQPTVVFVSKKGLRKVLDVQKKLPIIRKIIIMDSKTDYQGFQSMYTFVASHLPPSFNEYDFVPECFDRDKTIALIMNSSGSTGLPKGVALPHRTACVRFSHARDPIFGYQNIPDTAILSVVPFHHGFGMFTTLGYLICGFRVVFMYRFEEELFLRSLQDYKIQSALLVPTLFSCLAKSTLIDKYDLSSLREIASGGAPLSKEVGEAVAKRFRLPGIRQGYGLTETTNAVMITPEGDRKPGSVGKVVPFFEAKVVDLVTGKTLGVNQRGELCVRGPMIMSGYVNNPEATNALIDKDGWLHSGDIAYWDEDEHFFIVDRLKSLIKYKGYQVAPAELEGILLQHPYIFDAGVAGLPDDDAGELPAAVVVLEHGKTMTEKEIVDYVASQVTTAKKLRGGVVFVDEVPRGPTGKLDARKIREILTKAKKDGKIAV
modifications: Modified Luciferase
Turning to B1, in [1], the “relative emission intensity, AKA” value is 2.4 × 10^3 and the “AkaLumine emission intensity, relative value” is listed as 2.4. The “relative emission intensity, AKA-OH” value in experiment [2] is 0.9. In addition, in [3], the “relative emission intensity, Dluc” value turned out to be 1.0 and the “D-luciferin emission intensity, relative value” is on record as “not detected”. For the same molecule, in [4], the “relative emission intensity, 6-AKA” value is given as 8.1 × 10^2. The “relative emission intensity, monoNH2” value in [5] is on record as 1.2 × 10^−1. The “relative emission intensity, biph” value in experiment [6] came to 3.1. Besides, the “relative emission intensity, monoOH” value in [7] is on record as 1.5 × 10^−2.

B2: Variant d: luc2 variant with the mutations of column d in Table 1 (SEQ ID NO: 7) (protein)
chain: B1 chain with L86S, D138N, A169T, F264L, T290A, L291P
modifications: Modified Luciferase
For the molecule B2, in experiment [1], the “relative emission intensity, AKA” value is 3.4 × 10^3; the AkaLumine/D-luciferin is 3.4 × 10^3; the “AkaLumine emission intensity, relative value” is listed as 6.1. In experiment [2], the “relative emission intensity, AKA-OH” value is on record as 9.8 × 10^−1. Further, in experiment [3], the “relative emission intensity, Dluc” value amounted to 1.0 and the “D-luciferin emission intensity, relative value” is listed as 1.8 × 10^−3. Also, the “relative emission intensity, 6-AKA” value in [4] is given as 1.5 × 10^3. In addition, the “relative emission intensity, monoNH2” value in [5] was 1.3 × 10^−1. Further, the “relative emission intensity, biph” value in experiment [6] is given as 7.5. For the same molecule, the “relative emission intensity, monoOH” value in [7] is 7.1 × 10^−2. Also, the “relative emission intensity, monoNMe2” value in experiment [8] was 6.6.

B3: Variant c: luc2 variant with the mutations of column c in Table 1 (SEQ ID NO: 6) (protein)
chain: B1 chain with L86S, D138N, A169T, C185S, F264L, P526S
modifications: Modified Luciferase
As for B3, in experiment [1], the “relative emission intensity, AKA” value is 9.0 × 10^3 and the “AkaLumine emission intensity, relative value” was found to be 6.8. Besides, the “relative emission intensity, AKA-OH” value in experiment [2] was 1.8. Also, in experiment [3], the “relative emission intensity, Dluc” value is listed as 1.0 and the “D-luciferin emission intensity, relative value” is listed as “not detected”. In [4], the “relative emission intensity, 6-AKA” value is 1.8 × 10^3. Besides, the “relative emission intensity, monoNH2” value in [5] is reported as 1.8 × 10^−1. The “relative emission intensity, biph” value in experiment [6] was 4.1. Besides, the “relative emission intensity, monoOH” value in experiment [7] is 1.1 × 10^−1.

B4: Luc2: luciferase derived from Photinus pyralis consisting of an amino acid sequence represented by SEQ ID NO: 1 (protein, listed as Photinus pyralis)
chain: MEDAKNIKKGPAPFYPLEDGTAGEQLHKAMKRYALVPGTIAFTDAHIEVDITYAEYFEMSVRLAEAMKRYGLNTNHRIVVCSENSLQFFMPVLGALFIGVAVAPANDIYNERELLNSMGISQPTVVFVSKKGLQKILNVQKKLPIIQKIIIMDSKTDYQGFQSMYTFVTSHLPPGFNEYDFVPESFDRDKTIALIMNSSGSTGLPKGVALPHRTACVRFSHARDPIFGNQIIPDTAILSVVPFHHGFGMFTTLGYLICGFRVVLMYRFEEELFLRSLQDYKIQSALLVPTLFSFFAKSTLIDKYDLSNLHEIASGGAPLSKEVGEAVAKRFHLPGIRQGYGLTETTSAILITPEGDDKPGAVGKVVPFFEAKVVDLDTGKTLGVNQRGELCVRGPMIMSGYVNNPEATNALIDKDGWLHSGDIAYWDEDEHFFIVDRLKSLIKYKGYQVAPAELESILLQHPNIFDAGVAGLPDDDAGELPAAVVVLEHGKTMTEKEIVDYVASQVTTAKKLRGGVVFVDEVPKGLTGKLDARKIREILIKAKKGGKIAV
As for B4, in [1], the “relative emission intensity, AKA” value was 2.6 × 10^−1; the AkaLumine/D-luciferin was determined as 1.8; the “AkaLumine emission intensity, relative value” is given as 1.0. Moreover, the “relative emission intensity, AKA-OH” value in experiment [2] was “not detected”. Moreover, in experiment [3], the “relative emission intensity, Dluc” value was 1.0 and the “D-luciferin emission intensity, relative value” is 5.5 × 10^−1. In addition, the “relative emission intensity, O-AKA” value in experiment [9] is recorded as 8.4 × 10^−3. In addition, the “relative emission intensity, 6-AKA” value in [4] is on record as 1.6 × 10^−1. The “relative emission intensity, monoNH2” value in experiment [5] is on record as 3.0 × 10^−3. In addition, the “relative emission intensity, biph” value in experiment [6] is reported as 1.4 × 10^−2. Besides, the “relative emission intensity, monoOH” value in experiment [7] is listed as 1.8 × 10^−3. Besides, in experiment [8], the “relative emission intensity, monoNMe2” value is 1.1 × 10^−1.

B5: N229H_S347N: luc2 variant with N229H and S347N mutations (SEQ ID NO: 3) (protein)
chain: B4 chain with N229H, S347N
modifications: Modified Luciferase
In the case of B5, in experiment [1], the “relative emission intensity, AKA” value is listed as 1.7 × 10^3. In experiment [2], the “relative emission intensity, AKA-OH” value is 0.9. Also, the “relative emission intensity, Dluc” value in experiment [3] was 1.0. For the same molecule, the “relative emission intensity, O-AKA” value in [9] turned out to be 6.3. The “relative emission intensity, 6-AKA” value in experiment [4] is given as 8.5 × 10^2. The “relative emission intensity, monoNH2” value in [5] is 4.3 × 10^−1. The “relative emission intensity, biph” value in [6] turned out to be 4.9. Moreover, the “relative emission intensity, monoOH” value in [7] is “not detected”.

B6: N229Y_S347N: luc2 variant with N229Y and S347N mutations (SEQ ID NO: 2) (protein)
chain: B4 chain with N229Y, S347N
modifications: Modified Luciferase
For the molecule B6, the “relative emission intensity, AKA” value in experiment [1] is reported as 6.4 × 10^3. Besides, the “relative emission intensity, AKA-OH” value in experiment [2] turned out to be 2.1. Also, the “relative emission intensity, Dluc” value in experiment [3] worked out at 1.0. In experiment [4], the “relative emission intensity, 6-AKA” value was 9.6 × 10^2. Besides, the “relative emission intensity, monoNH2” value in experiment [5] stood at 1.7. The “relative emission intensity, biph” value in [6] is on record as 6.9. In addition, the “relative emission intensity, monoOH” value in [7] was 1.4 × 10^−2. In experiment [8], the “relative emission intensity, monoNMe2” value was 2.4 × 10^2.

B7: N229Y_H310Q_S347N: luc2 variant with N229Y, H310Q and S347N mutations (SEQ ID NO: 4) (protein)
chain: B4 chain with N229Y, H310Q, S347N
modifications: Modified Luciferase
In the case of B7, the “relative emission intensity, AKA” value in experiment [1] is 4.1 × 10^3. The “relative emission intensity, AKA-OH” value in experiment [2] was found to be 1.4. Also, in experiment [3], the “relative emission intensity, Dluc” value came to 1.0. Further, in experiment [9], the “relative emission intensity, O-AKA” value is recorded as 2.1 × 10^−3. Moreover, the “relative emission intensity, 6-AKA” value in experiment [4] was 1.1 × 10^3. Moreover, the “relative emission intensity, monoNH2” value in experiment [5] is 7.3 × 10^−1. The “relative emission intensity, monoOH” value in experiment [7] is 1.3 × 10^−1.

For the origin of these results see patent US20190177704A1, “MODIFIED LUCIFERASE” (RIKEN, priority 2016, published 2019).
